Laboratory results published in paper PMC8407082, “An Integrative Approach to Determine 3D Protein Structures Using Sparse Paramagnetic NMR Data and Physical Modeling” (Frontiers in Molecular Biosciences, 2021).

Biological target: T1, calmodulin (UniProt P0DP23 1-149)
T1 construct: calmodulin, printed as 148 residues long; 13C/15N-labelled; The MELD model has 149 residues (with the extension C149); also called CaM; source: expressed in M9 minimal medium with 15NH4Cl and 13C6-glucose, purified as described previously (Liu and Vogel, 2012; Ishida et al., 2016)
Assay: solution NMR (backbone chemical shifts, PRE, RDC) with MELD modelling of the complex's structure; 600 MHz; 1.2-fold excess of peptide mixed with CaM; RDCs in 2 mM bis-Tris pH 7.0, 300 mM KCl, 16 mg/ml Pf1 bacteriophage
Conditions: both partners purified

B1: smooth muscle myosin light chain kinase peptide (peptide)
peptide: PARRKWQKTGHAVRAIGRLSS
notes: proline left from the Asp-Pro acid cleavage site of the linker GGGGSSDP; Made unlabelled (LB) or 13C/15N-labelled (M9); The N-terminal proline is not seen in the NMR experiments and was left out of the MELD model; also called smMLCK peptide; smMLCKp; not shown: 6xHis, N-terminal, cleaved; KSI (D38A), N-terminal, cleaved
B1: binds.
